Laboratory results as given in US20090036382A1, “TGF-Beta Modulators and Use Thereof” (Universita' Degli Studi Di Padova, priority 2006, published 2009).

Columns and labels:
Assay type in all cases: cell-based
mature TGF-β1 = assay: CAGA12-lux luciferase reporter in HEK293T cells treated with recombinant TGF-β1; conditions: 5 ng/ml recombinant TGF-β1, expression vector 500 ng, FIG. 2B
Procedure: To verify how emilin or the EMI domain can contrast TGF-β1 activity independently from receptor binding, HEK293T cells were transfected with a construct coding luciferase placed under control of a TGF-β activated promoter: CAGA12-lux (Jonk et al., 1998) alone or in combination with a emilin1 expression vector (500 ng) as shown in FIG. 2B. After transfection, cells were treated (black bar) or not treated (white bar) with 5 ng/ml recombinant TGF-1 (lanes 1 and 2). Column bars from 3 to 6 report luciferase expression values in experiments with cells co-transfected with the expression vector for emilin1 (or EMI-domain or emilin1ΔEMI) alone (white bars) or in combination with the vector encoding pro TGF-β1 (black bars). Values show the mean±st. dev.

pro TGF-β1 processing = molecular target: T1, pro TGF-β1 processing (Homo sapiens, UniProt P01137); assay: Western blot of pro TGF-β1 conversion to LAP and mature TGF-β1 in transfected HEK293T cells; conditions: HEK293T cotransfected; cell extracts anti-LAP, supernatants anti-TGF-β1; FIG. 4D
T1 construct: Flag; expressed in transfected cells; host or cells: HEK293T (A6); mouse embryo fibroblasts (A8)
Source text: • The construct for emilin 1 expression was engineered in pCS2 vector (Rupp R. A. et al., 1994, Genes Dev 8, 1311-1323) (for a physical map of the vector, see the site faculty.washington.edu/rtmoon/pcs2+.html) as described (Zanetti M. et al., 2004, Mol Cell Biol 24, 638-650); the vector used for proTGF-β expression in MEF and HEK293T cells is pCDNA3.1 (Invitrogen). Vectors containing the coding sequence for human pro TGF-β are described in Young and Murphy-Ullrich, 2004 (Young and Murphy-Ullrich, 2004, J Biol Chem 279, 38032-38039). The human pro TGF-β cDNA sequence is reported in the data bank (NP_000660; protein 000651). • The vector for Furin/SPC 1 expression is pCDNA3.1 (Invitrogen) • p15 and CAGA 12 promoter fragments are described in Jonk L. J. et al., 1998, J Biol Chem 273, 21145-21152 […]. • Constructs containing Flag sequences are described in Young G. D and Murphy-Ullrich J E, 2004, J Biol Chem 279, 38032-38039. • Constructs containing the Flag epitope (e.g. Flag-EMI-domain-GPI) were prepared as described in Chubet R G et al. Biotechniques 1996; 20(1):136-141 and detected by anti-Flag antibody (Kodak Inc.). • Constructs containing the GPI anchor were prepared as described in the Manual “Current Protocols in Cell Biology” Howard R. Petty Wayne State University, Detroit, Mich.; Juan S. Bonifacino, Mary Dasso, Joe B. Harford, Jennifer Lippincott-Schwartz, and Kenneth M. Yamada (eds.), Copyright C 2003 John Wiley & Sons, Inc. (GPI-anchor). In the construct Flag-EMI domain-GPI, the Flag sequence was inserted at the N-terminus after the signal peptide, while the GPI-anchor sequence was placed at the COOH-terminal end. • The construct emilin 1-KDEL was obtained by inserting the KDEL coding sequence described by Munro S., and Pelham, H. R., 1987, Cell 48, 899-907 upstream the emilin 1 STOP codon. • The construct containing the type II TGF-β receptor with HA epitope was described in Wrana J. L. et al., 1994, Nature 370, 341-347. • supplier of the drugs used: SP600125 (Calbiochem), SB431542 (Tocris). • Purified recombinant LAP and TGF-β1 proteins were purchased from (R&D Systems)
To verify whether emilin or its EMI domain inhibit TGF-β or its precursor, HEK293T cells were cotransfected with plasmids driving the expression of pro TGF-β1 (fused to the FLAG-domain, even though the antibody used were directed at LAP and TGF-β proteins) and emilin-1 (or EMI-domain). […] The anti-Flag antibody used was obtained from Kodak Inc; for the preparation of Flag constructs, see Younjg and Murphy-Ullrich (Young and Murphy-Ullrich, 2004).
As reported in the summary scheme above FIG. 5A, HEK293T cells were transfected with the plasmid encoding pro TGF-β1 (lane 1) and cotransfected with emilin-1 (lane 3) or treated with decanoyl-RVKR-CMK peptide (Decanoyl-Arg-Val-Lys-Arg-chloromethylketone, Alexis Corporation, Lausen, Switzerland) (lane 2) at a concentration of 100 μM. The peptide is an irreversible and competitive inhibitor of furin proprotein convertase and of other SPC family members (Proprotein Convertase); in addition, it inhibits pro-MMP2 dependent furin activation. The supernatant was then loaded on SDS-PAGE and detected by Western-blot with anti-TGF-β1 antibody. […] An increase of the precursor band in lanes 2 and 3 is […] to the decrease of TGF-β. Therefore it can be concluded that this assay detects an effect of emilin-1 on TGF-β1 processing that is similar to the effect of Furin inhibitors.

Furin/SPC 1 = molecular target: T2, Furin/SPC 1 (Homo sapiens, UniProt P09958); assay: Western blot (anti-LAP) of pro TGF-β1 cleavage in HEK293T cells co-transfected with Furin/SPC 1; conditions: HEK293T cell extracts, FIG. 5B
T2 construct: expressed in transfected cells; host or cells: HEK293T
Source text: To further investigate the role of emilin-1 on TGF-β processing, HEK293T cells were transfected with plasmids encoding pro TGF-β1, Furin/SPC 1 and EMI-domain, as shown in the scheme above FIG. 5B. Cell extracts were loaded on SDS-PAGE and detected by Western-blot with anti-LAP antibody.

T1 sequence (P01137 30-390): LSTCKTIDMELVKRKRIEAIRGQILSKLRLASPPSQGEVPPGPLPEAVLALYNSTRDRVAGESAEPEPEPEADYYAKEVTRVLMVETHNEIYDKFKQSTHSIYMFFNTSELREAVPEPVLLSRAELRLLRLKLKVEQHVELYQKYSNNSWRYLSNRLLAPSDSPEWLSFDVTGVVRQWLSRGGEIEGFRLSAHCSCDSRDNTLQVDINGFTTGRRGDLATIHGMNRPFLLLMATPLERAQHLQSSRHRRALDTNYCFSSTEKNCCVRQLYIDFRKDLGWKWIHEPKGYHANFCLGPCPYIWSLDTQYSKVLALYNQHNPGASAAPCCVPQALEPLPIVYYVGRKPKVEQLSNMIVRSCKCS
T2 sequence (P09958 108-794): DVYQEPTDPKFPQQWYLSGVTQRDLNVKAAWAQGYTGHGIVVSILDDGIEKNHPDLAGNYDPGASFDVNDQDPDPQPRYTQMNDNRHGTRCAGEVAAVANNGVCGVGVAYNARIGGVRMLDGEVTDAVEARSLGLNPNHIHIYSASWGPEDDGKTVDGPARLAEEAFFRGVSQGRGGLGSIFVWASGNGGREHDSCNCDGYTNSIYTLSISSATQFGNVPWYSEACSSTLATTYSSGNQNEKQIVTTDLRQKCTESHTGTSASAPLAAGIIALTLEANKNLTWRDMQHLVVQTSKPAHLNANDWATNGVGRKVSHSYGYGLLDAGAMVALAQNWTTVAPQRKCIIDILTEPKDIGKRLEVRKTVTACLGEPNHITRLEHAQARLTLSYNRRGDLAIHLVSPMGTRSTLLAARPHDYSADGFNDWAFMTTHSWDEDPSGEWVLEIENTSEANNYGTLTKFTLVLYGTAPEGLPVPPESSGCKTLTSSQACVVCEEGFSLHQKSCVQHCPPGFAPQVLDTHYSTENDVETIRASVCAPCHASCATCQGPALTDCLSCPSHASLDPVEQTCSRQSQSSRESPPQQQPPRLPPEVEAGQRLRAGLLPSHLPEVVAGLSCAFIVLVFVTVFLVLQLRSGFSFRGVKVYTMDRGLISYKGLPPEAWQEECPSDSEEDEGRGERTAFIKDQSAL

- Furin-induced proteolytic cleavage product of pro TGF-β1 (Furin/SPC 1): blocks the effect of Furin
B1: EMI domain: cysteine-rich domain of emilin-1, residues 55-131, SEQ ID NO 2; in some experiments Flag-tagged and GPI-anchored (protein)
chain: RHRNWCAYVVTRTVSCVLEDGVETYVKYQPCAWGQPQCPQSIMYRRFLRPRYRVAYKTVTDMEWRCCQGYGGDDCAE
modifications: sometimes Flag tag and GPI anchor; homo sapiens
notes: in some experiments Flag-tagged and GPI-anchored
- Effect on luciferase expression induced by mature TGF-β (mature TGF-β1): does not antagonize mature TGF-β
- Conversion of pro TGF-β1 to LAP and mature TGF-β1 (band intensity) (pro TGF-β1 processing): inhibit the conversion of pro TGF-β1
